Source: patent US20260242478A1 (published 2026)
Where no end group is shown, it is not given here.

Legend:
[1] = target: T1, Anti-PSMA Fab (SEQ ID NOs: 19, 20); assay: phage binding ELISA; PSMA Fab on plate pre-incubated with PSMA antigen as competitor, anti-M13 HRP detection;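 note: crude clonal phage supernatants added without washing to wells preincubated with PSMA in blocking buffer, compared with wells receiving blocking buffer only, then bound phage detected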
T1 construct: Biotinylated and captured on neutravidin coated plates in the phage ELISA; also called 006 PSMA Fab
Protocol: (§1) Clonal phage were harvested as crude supernatants and screened via standard ELISAs. […] Prior to the addition of clonal phage. wells were incubated with blocking buffer and PSMA antigen or blocking buffer alone. Without washing or aspirating, clonal phage supernatants were then added to the wells and incubated for a short time. Wells were then washed followed by detection of bound phage using a horse radish conjugated anti-M13 antibody.

[2] = target: T1, Anti-PSMA Fab (SEQ ID NOs: 19, 20); assay: phage binding ELISA; biotinylated PSMA Fab on neutravidin plate, clonal phage supernatant, anti-M13 HRP detection;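 note: wells were preincubated with blocking buffer either containing PSMA antigen or without it before crude phage supernatant was added, briefly incubated, then washed prior to detection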
Protocol: as §1

[3] = target: T2, Anti-PSMA Fab (SEQ ID NOs: 19, 20) (biotinylated (site not stated)); assay: phage ELISA; biotinylated PSMA Fab on neutravidin plate, clonal phage supernatant, anti-M13 HRP detection;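 note: wells preincubated with PSMA antigen in blocking buffer or with blocking buffer only before clonal phage were added for a short incubation, then bound phage detected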
T2 construct: also called 006 PSMA Fab

[4] = target: T2, Anti-PSMA Fab (SEQ ID NOs: 19, 20); assay: phage ELISA; biotinylated PSMA Fab on neutravidin plate, wells pre-incubated with PSMA antigen as competitor, anti-M13 HRP detection
Protocol: as §1

[5] = target: T3, Anti-PSMA Fab (SEQ ID NOs: 19, 20); assay: phage binding ELISA; clonal phage supernatant on biotinylated PSMA Fab captured on neutravidin plate; anti-M13-HRP detection
T3 construct: also called 006 PSMA Fab
Protocol: as §1

[6] = target: T3, Anti-PSMA Fab (SEQ ID NOs: 19, 20); assay: phage binding ELISA; clonal phage supernatant on biotinylated PSMA Fab captured on neutravidin plate, wells pre-incubated with PSMA antigen (competitor: PSMA); anti-M13-HRP detection
Protocol: as §1

B1: Phage-1952 (peptide)
peptide: MPKWCTPAWMCAHQ
modifications: cysteine pairing not given here; also: displayed as fusion to phage pIII
- Phage binding ELISA, Anti-PSMA Fab signal in the presence of PSMA [1]: 0.0835
- Phage binding ELISA, Anti-PSMA Fab (SEQ ID NOs: 19, 20) signal [2]: 1.93

B2: Phage-1953 (peptide)
peptide: PVKWCIPTWMCAPV
modifications: cysteine pairing not given here; also: fused to phage pIII (clonal phage display)
- Phage binding ELISA, Anti-PSMA Fab signal in the presence of PSMA [1]: 0.0978
- Phage binding ELISA, Anti-PSMA Fab (SEQ ID NOs: 19, 20) signal [2]: 1.92

B3: Phage-1934 (peptide)
peptide: VSIWCRPAWMCESG
notes: Clonal phage of the Peptide-180 library, tested as crude supernatant; not shown: fused to the pIII filament protein of the bacteriophage
- Phage binding ELISA, Anti-PSMA Fab (SEQ ID NOs: 19, 20) signal [3]: 1.97
- Phage binding ELISA, Anti-PSMA Fab signal in the presence of PSMA [4]: 0.0809

B4: Phage-1931 (peptide)
peptide: WDRLCTPAWMCTGF
notes: as for B3
- Phage binding ELISA, Anti-PSMA Fab (SEQ ID NOs: 19, 20) signal [3]: 1.97
- Phage binding ELISA, Anti-PSMA Fab signal in the presence of PSMA [4]: 0.104

B5: Phage-1933 (peptide)
peptide: VVQWCIPAWMCAAQ
modifications: cysteine pairing not given here; also: displayed as fusion to phage pIII
notes: as for B3
- Phage binding ELISA, Anti-PSMA Fab (SEQ ID NOs: 19, 20) signal [3]: 1.97
- Phage binding ELISA, Anti-PSMA Fab signal in the presence of PSMA [4]: 0.0955

B6: Phage-1946 (peptide)
peptide: TEMWCKPSWMCYGF
- Anti-PSMA Fab (SEQ ID NOs: 19, 20) signal [5]: 1.94
- Anti-PSMA Fab signal in the presence of PSMA [6]: 0.101

B7: Phage-1945 (peptide)
peptide: WENWCTPRWMCEGF
- Anti-PSMA Fab (SEQ ID NOs: 19, 20) signal [5]: 1.94
- Anti-PSMA Fab signal in the presence of PSMA [6]: 0.173

B8: Phage-1956 (peptide)
peptide: FAKWCTPVWMCAGL
modifications: cysteine pairing not given here; also: displayed as fusion to phage pIII
- Phage binding ELISA, Anti-PSMA Fab signal in the presence of PSMA [1]: 0.281
- Phage binding ELISA, Anti-PSMA Fab (SEQ ID NOs: 19, 20) signal [2]: 1.92

B9: Phage-1954 (peptide)
peptide: HEKWCIPEWMCVVT
- Phage binding ELISA, Anti-PSMA Fab signal in the presence of PSMA [1]: 0.0642
- Phage binding ELISA, Anti-PSMA Fab (SEQ ID NOs: 19, 20) signal [2]: 1.92

B10: Phage-1951 (peptide)
peptide: AEHWCIPSWMCAGF
modifications: cysteine pairing not given here; also: displayed as fusion to phage pIII
- Phage binding ELISA, Anti-PSMA Fab signal in the presence of PSMA [1]: 0.104
- Phage binding ELISA, Anti-PSMA Fab (SEQ ID NOs: 19, 20) signal [2]: 1.93

B11: Phage-1949 (peptide)
peptide: DIKLCMPEWMCLGF
- Anti-PSMA Fab (SEQ ID NOs: 19, 20) signal [5]: 1.93
- Anti-PSMA Fab signal in the presence of PSMA [6]: 0.0792

B12: Phage-1944 (peptide)
peptide: DGKWCIPPWMCQST
- Anti-PSMA Fab (SEQ ID NOs: 19, 20) signal [5]: 1.94
- Anti-PSMA Fab signal in the presence of PSMA [6]: 0.077

B13: Phage-1930 (peptide)
peptide: VQNWCIPAWMCQGM
notes: as for B3
- Phage binding ELISA, Anti-PSMA Fab (SEQ ID NOs: 19, 20) signal [3]: 1.98
- Phage binding ELISA, Anti-PSMA Fab signal in the presence of PSMA [4]: 0.0574

B14: Phage-1935 (peptide)
peptide: VEKLCKPIWMCNWQ
notes: as for B3
- Phage binding ELISA, Anti-PSMA Fab (SEQ ID NOs: 19, 20) signal [3]: 1.96
- Phage binding ELISA, Anti-PSMA Fab signal in the presence of PSMA [4]: 0.0992

B15: Phage-1925 (peptide)
peptide: TEMWCKPAWMCTGF
notes: as for B3
- Phage binding ELISA, Anti-PSMA Fab (SEQ ID NOs: 19, 20) signal [3]: 1.99
- Phage binding ELISA, Anti-PSMA Fab signal in the presence of PSMA [4]: 0.0938

B16: Phage-1932 (peptide)
peptide: DFKWCTPMWMCEHL
notes: as for B3
- Phage binding ELISA, Anti-PSMA Fab (SEQ ID NOs: 19, 20) signal [3]: 1.97
- Phage binding ELISA, Anti-PSMA Fab signal in the presence of PSMA [4]: 0.106

B17: Phage-1950 (peptide)
peptide: ARRSCVFRRGCVFM
- Anti-PSMA Fab (SEQ ID NOs: 19, 20) signal [5]: 1.93
- Anti-PSMA Fab signal in the presence of PSMA [6]: 0.0701

B18: Phage-1928 (peptide)
peptide: ELHLCIPRGMCKFR
notes: as for B3
- Phage binding ELISA, Anti-PSMA Fab (SEQ ID NOs: 19, 20) signal [3]: 1.98
- Phage binding ELISA, Anti-PSMA Fab signal in the presence of PSMA [4]: 0.0668

B19: Phage-1948 (peptide)
peptide: MDNWCTPSWMCVGF
- Anti-PSMA Fab (SEQ ID NOs: 19, 20) signal [5]: 1.93
- Anti-PSMA Fab signal in the presence of PSMA [6]: 0.0794

B20: Phage-1936 (peptide)
peptide: WPKWCTPPWMCFQD
- Anti-PSMA Fab (SEQ ID NOs: 19, 20) signal [5]: 1.96
- Anti-PSMA Fab signal in the presence of PSMA [6]: 0.148

B21: Phage-1922 (peptide)
peptide: LVNWCIPMWMCEGF
notes: as for B3
- Phage binding ELISA, Anti-PSMA Fab (SEQ ID NOs: 19, 20) signal [3]: 1.99
- Phage binding ELISA, Anti-PSMA Fab signal in the presence of PSMA [4]: 0.107

B22: Phage-1940 (peptide)
peptide: WENWCRPEWMCTGL
- Anti-PSMA Fab (SEQ ID NOs: 19, 20) signal [5]: 1.95
- Anti-PSMA Fab signal in the presence of PSMA [6]: 0.0907

B23: Phage-1947 (peptide)
peptide: WINWCTPEWMCMGF
- Anti-PSMA Fab (SEQ ID NOs: 19, 20) signal [5]: 1.94
- Anti-PSMA Fab signal in the presence of PSMA [6]: 0.24

B24: Phage-1929 (peptide)
peptide: AEKWCIPAWMCEAM
notes: as for B3
- Phage binding ELISA, Anti-PSMA Fab (SEQ ID NOs: 19, 20) signal [3]: 1.98
- Phage binding ELISA, Anti-PSMA Fab signal in the presence of PSMA [4]: 0.0668

B25: Phage-1937 (peptide)
peptide: FPKWCTPAWMCERS
- Anti-PSMA Fab (SEQ ID NOs: 19, 20) signal [5]: 1.96
- Anti-PSMA Fab signal in the presence of PSMA [6]: 0.0909

B26: Phage-1943 (peptide)
peptide: LEKWCIPTWMCELF
- Anti-PSMA Fab (SEQ ID NOs: 19, 20) signal [5]: 1.94
- Anti-PSMA Fab signal in the presence of PSMA [6]: 0.175

B27: Phage-1939 (peptide)
peptide: VEKLCRPSWMCEHM
- Anti-PSMA Fab (SEQ ID NOs: 19, 20) signal [5]: 1.96
- Anti-PSMA Fab signal in the presence of PSMA [6]: 0.0564

B28: Phage-1957 (peptide)
peptide: LENWCIPAWMCSGF
- Phage binding ELISA, Anti-PSMA Fab signal in the presence of PSMA [1]: 0.0656
- Phage binding ELISA, Anti-PSMA Fab (SEQ ID NOs: 19, 20) signal [2]: 1.92

B29: Phage-1955 (peptide)
peptide: GEIWCIPPWMCYAP
- Phage binding ELISA, Anti-PSMA Fab signal in the presence of PSMA [1]: 0.0825
- Phage binding ELISA, Anti-PSMA Fab (SEQ ID NOs: 19, 20) signal [2]: 1.92

B30: Phage-1941 (peptide)
peptide: GEKWCIPEWMCTTW
- Anti-PSMA Fab (SEQ ID NOs: 19, 20) signal [5]: 1.95
- Anti-PSMA Fab signal in the presence of PSMA [6]: 0.135

B31: Phage-1926 (peptide)
peptide: FAKWCTPEWMCVGF
notes: as for B3
- Phage binding ELISA, Anti-PSMA Fab (SEQ ID NOs: 19, 20) signal [3]: 1.99
- Phage binding ELISA, Anti-PSMA Fab signal in the presence of PSMA [4]: 0.125

B32: Phage-1921 (peptide)
peptide: VDRWCVPVWMCEGL
modifications: cysteine pairing not given here; also: displayed as fusion to phage pIII
notes: as for B3
- Phage binding ELISA, Anti-PSMA Fab (SEQ ID NOs: 19, 20) signal [3]: 1.99
- Phage binding ELISA, Anti-PSMA Fab signal in the presence of PSMA [4]: 0.124

B33: Phage-1923 (peptide)
peptide: VEKWCIPTWMCELS
notes: as for B3
- Phage binding ELISA, Anti-PSMA Fab (SEQ ID NOs: 19, 20) signal [3]: 1.99
- Phage binding ELISA, Anti-PSMA Fab signal in the presence of PSMA [4]: 0.0767

B34: Phage-1924 (peptide)
peptide: TEKLCIPEWMCFGM
notes: as for B3
- Phage binding ELISA, Anti-PSMA Fab (SEQ ID NOs: 19, 20) signal [3]: 1.99
- Phage binding ELISA, Anti-PSMA Fab signal in the presence of PSMA [4]: 0.0644

B35: Phage-1927 (peptide)
peptide: WENWCTPAWMCSHM
notes: as for B3
- Phage binding ELISA, Anti-PSMA Fab (SEQ ID NOs: 19, 20) signal [3]: 1.98
- Phage binding ELISA, Anti-PSMA Fab signal in the presence of PSMA [4]: 0.1

B36: Phage-1942 (peptide)
peptide: VEKWCVPQWMCGQM
- Anti-PSMA Fab (SEQ ID NOs: 19, 20) signal [5]: 1.95
- Anti-PSMA Fab signal in the presence of PSMA [6]: 0.0869

B37: Phage-1938 (peptide)
peptide: MEKWCIPSWMCDVN
- Anti-PSMA Fab (SEQ ID NOs: 19, 20) signal [5]: 1.96
- Anti-PSMA Fab signal in the presence of PSMA [6]: 0.0785
